# In article PMC3670040, “Structure of Lipid Kinase p110β/p85β Elucidates an Unusual SH2-Domain-Mediated Inhibitory Mechanism” (Molecular Cell, 2011):
# B1: mouse p85β-icSH2 (residues 423–722) (domain or fragment, UniProt O08908 423-722, looked up)
# chain: QQDQVVKEDSIEAVGAQLKVYHQQYQDKSREYDQLYEEYTRTSQELQMKRTAIEAFNETIKIFEEQGQTQEKCSKEYLERFRREGNEKEMQRILLNSERLKSRIAEIHESRTKLEQDLRAQASDNREIDKRMNSLKPDLMQLRKIRDQYLVWLTQKGARQRKINEWLGIKNETEDQYSLMEDEDALPHHEERTWYVGKINRTQAEEMLSGKRDGTFLIRESSQRGCYACSVVVDGDTKHCVIYRTATGFGFAEPYNLYGSLKELVLHYQHASLVQHNDALTVTLAHPVRAPGPGPPSAAR
# notes: No tag (pFastBac1); also called p85-icSH2; source: Sf9 cells, recombinant baculoviruses, coinfected with p110β; complex purified (HisTrap, Q-Sepharose, heparin, gel filtration)
# Biological target: T1, Mouse His6-p110β(1-1064) (mouse, UniProt Q8BTI9 1-1064)
# T1 construct: p110β catalytic subunit of class IA PI3K, mouse, residues 1-1064 (full length); N-terminal extension from pFastBac-HTb printed as [residues removed]; (His6 tag and TEV site); this molecule is used there; also called full-length mouse p110β; p110β catalytic subunit; source: Sf9 cells, recombinant baculoviruses, coinfected with the regulatory subunit; complex purified (HisTrap, Q-Sepharose, …)
# T1 sequence (Q8BTI9 whole entry, the tested form may be a part): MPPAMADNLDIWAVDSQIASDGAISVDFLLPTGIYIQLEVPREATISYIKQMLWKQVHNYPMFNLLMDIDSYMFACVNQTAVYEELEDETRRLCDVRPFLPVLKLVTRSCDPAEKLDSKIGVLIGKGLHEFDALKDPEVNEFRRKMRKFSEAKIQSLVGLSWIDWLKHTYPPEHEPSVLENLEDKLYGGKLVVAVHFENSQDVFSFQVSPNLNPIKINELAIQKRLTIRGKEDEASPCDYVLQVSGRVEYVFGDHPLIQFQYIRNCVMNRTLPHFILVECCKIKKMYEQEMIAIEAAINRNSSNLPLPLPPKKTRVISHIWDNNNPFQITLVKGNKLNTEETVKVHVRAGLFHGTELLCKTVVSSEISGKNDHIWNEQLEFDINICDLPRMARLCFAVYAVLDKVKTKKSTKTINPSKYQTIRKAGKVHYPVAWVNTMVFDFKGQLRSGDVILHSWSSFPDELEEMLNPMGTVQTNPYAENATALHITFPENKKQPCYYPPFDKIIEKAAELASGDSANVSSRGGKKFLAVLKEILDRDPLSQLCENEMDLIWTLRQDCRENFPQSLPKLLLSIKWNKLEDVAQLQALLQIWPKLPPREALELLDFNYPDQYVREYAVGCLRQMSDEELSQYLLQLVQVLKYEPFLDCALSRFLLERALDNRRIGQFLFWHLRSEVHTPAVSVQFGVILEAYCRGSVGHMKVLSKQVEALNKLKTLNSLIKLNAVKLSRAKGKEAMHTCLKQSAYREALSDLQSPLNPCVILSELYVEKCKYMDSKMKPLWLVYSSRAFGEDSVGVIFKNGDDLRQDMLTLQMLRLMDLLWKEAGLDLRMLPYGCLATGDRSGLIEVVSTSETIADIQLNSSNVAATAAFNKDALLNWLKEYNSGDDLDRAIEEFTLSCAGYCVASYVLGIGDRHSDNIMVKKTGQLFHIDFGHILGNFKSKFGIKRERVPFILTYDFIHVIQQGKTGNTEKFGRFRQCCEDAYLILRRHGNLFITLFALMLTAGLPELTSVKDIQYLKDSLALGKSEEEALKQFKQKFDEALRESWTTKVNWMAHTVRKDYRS
# Assay: crystal structure; mouse His6-p110β(1-1064)/p85β-icSH2(423-722) complex at 4 mg/ml with 20 mM sodium phenyl phosphate and 150 μM GDC0941; 12% PEG 3350, 0.1 M potassium citrate pH 6, 0.4 M lithium sulfate, 22°C; 3.3 Å; one 1:1 complex in the asymmetric unit
# Details: both partners purified
binder,measurement,value
B1,binding result,binds
